Assay results as given in the DeepSol protein solubility set.

experiment: soluble on expression in E. coli; label from the status in PepcDB or PDB records

Sequence	soluble on expression in E. coli
MGSDKIHHHHHHMTDPFFLSDSGLLESYRAPKWLPGGNAQTIFPYFINLSPIISYRRERWEMDDGDFIDIDWLDGESDKPLVIMLHGLEGSSQSHYALSLMNLLQMLRWRGAVVHFRGCSGYSNRLPRAYHAGDSMEIDRMLRHIAHRNDSHEWNTPCYVVGVSLGGNALLKWLGEQGAQAARQIAGVVAVSVPLDLAAAGKVLDSGFNRVYTHHFLTTLKRKALEKNRQFPGLLNARAVAACRSLYEFDNLVTAPLHGFRDTDDYWRQSSSKPWLGSVQVPTLLINARNDPFLPESVLPQKSEVSSFVSLEFPQQGGHVGFIQGTFPGKLDWLPQRIIEFFSSLCGLDAIPG	not soluble
MGSDKIHHHHHHMTDPRTTAFNGRVAHASLKGEIEAERYSEGRWMMVQQPIANILDKPRGARTSQLVFGERFLVLDTEDGFSFGQAERDGYVGYILSGALTGAEPATHWVISPATHLYPKAELKVPPDVCLYFGSQVKVTGEKDDFKRIHTGHFMPSQHLMPIKARFRDSVGIADLFLGTPYLWGGTSRWGIDCSGLVQACLLACGVECPRDTDQQEAALGEEIPSDEALKRGDLIFWKGHVGMMASDRMLLHANAHHMSTAYEPLKDAAARIEAKEYGPITSRKRIAMG	not soluble
MGSDKIHHHHHHMTDVAKFGISRLDELLGGGLDRYTENLIIGRSGIGKTILAAHWAAEGARNDETVVYLSTTMNKKNCKAYLGRFPFMEDVYDKIKWRFIRVDPKFVLPLTREKIVEGLRATFGMDGKDIDRVVFDSCTDLELALADPVLYRRALTYMSDLSYDYEITSLWIEEAPMQGDWSSTKNIVDSVIFLNLLRTQEGYQRAMRILKKYRTRVPLEWIPYEITDEGVVIKDGYIVKRSYDYEYKRG	not soluble
MGSDKIHHHHHHMTEITTLSQFLTTAKTQFQVYDLGRRVQHIDMLAFHQIESLATPYPYPIQGHAQFAIVFWDASQQHFIWFLKLALDEQGLLSPAPRSQFIEMVLSALGQDPTQPLSNEQQEHLANNPFSFTPSQEKLAVFNALVRKQLGQHASVQYEFAMQYLSGQIAPSQWQHIGIQGIADVCVRANELDHEAKLLTSFDSAAIEVQIALCQCLEHVQISPLLANKILNKLTAAEPEHKAYFLRALASNSELSQKALAHLHQGSNLDANTLISIAGRNWTVLKQELSRSIYLEALALQPQTFFNQIFADIVAIPSLRNLLLGELRNPNRSIQLSQAIGGLFKAASK	not soluble
MGSDKIHHHHHHMTEIYEKYAHAAERMLHFVETRTTDQASSTMRVPVADYLDQGRFDLEIDRIFKRLPLMLALTIELPEVNDYKAMDVMGLPVLITRGRDGKARAFLNVCKHRAMHLAKEGKGNCKAFACQYHGWTYANDGKLMGIAEASTFGDVDRSTLNMTELPCDEAAGLIFVILTPGLPINAVEWMGGMYEDFAALKLETWYYHKSKAMKGANWKVAYDGYLEGYHFQAAHTNTVATRSPSNRASYEGFGPHIRLGFPQNTITRLHELPRDEWGRQENKGYDFIRMLFPNMSFFLAPEMGQLAQLFPGPQANQNTTVMNYIFPVKPETEEGLAALDQMCDFFFDVVEEEDYFLGLKVQNGLESGAMTHQTFGRNEPGNQFFHKWVAYYLDESGQTPMPVMKE	not soluble
MGSDKIHHHHHHMTENKLIIGTAPDSWGVWFADDPKQTPWERFLDEVAESGYKWIELGPYGYLPNNPARLAEELKQRDLKVTAGTVFTAFHRGLDEWETAWEPARKVAELTAAMGGEHIVVIPAMWRDDVTGEAVESGQLTEKAWSDLFAGHNRLGKTLLEDFGLKQQFHSHADSHVGAQEDIESLLAATDSKYLNLCLDTGHAEYCGASSLELIKNYPDRIGYLHLKQINPDILKKVNEENMTWAAANLAGVMTEPPNGLPDLRAVIEAVEALNRPIFGIVEQDMYPVAFDVPMPIAKRTRNYLLSCGSRTAVN	not soluble
MGSDKIHHHHHHMTEQITEIDTLVVGAGQAGVAMSEHLTRLDIPHLVLEKQGIAQAWRSGRWDSLVANGPAWHDRFPGMVFPDCPPDSFVGKEQVADYFAAYARSFNAPIRTGVEVYSAERLAGRPGFRIDTSQGVIEAQRIVAATGPFQRPVIPAIAPQSPAIQQLHSAHYFNPQQLPEGGVLVIGAGSSGVQIADELQRAGRAVWLSVGAHDRPPRRYRQRDFCWWLGVLGMWDAAANAPGKEHVTIAVSGARGGHTVDFRQLAHQGVTLVGQTRGFDGDKALFHPDLAENIRRGDASYLALLDAADAWVARNGMDLPEEPSAREFLPDPACVTDPLLSLNLAEAGIGTIIWATGYTTDYRWLKVNAFDDAQRPQHHRGVSTEPGVYFLGLPWLSRRGSTFIWGVWHDAKYIADQIAIQRQYQRYQPSC	not soluble
MGSDKIHHHHHHMTETTLPPLIQQMLQPGFYPHEVTEPIQLIQTHVSSVLLTGEYAYKLKKPVNFGFLDFSTLEKRQHFCQEELRLNQRGAAELYLEVLPISLVGEQYTLGGTGEAVEYVLKMRQFPQDGLFSELFAQGKLTESHLEELGKVVAQYHAKTETNDYIRSFGEVPQVQAAFDENYQQTEKYIGGPQTQLQFDETKAYTERFFAEKQELFQRRIQNNYIRECHGDLHLRNICLWQDKILLFDCIEFNEPFRFVDVMFDVAYAVMDLDAQQRPDLSNAYLNTYLEQTGDWEGLEVLPIYLNRQSYVRAKVTSFLLDDPSVPATVKEEATKTASTYYKLAWEYTKPKQGKLILMSGLSGSGKSTTAKYLARQLDAIQIRSDAVRKHLGGISLWERGGDDLYTPEMTQKTYARLLNLGTILANQGYTVILDAKYDKQNLRQEAIAQAEKHHLPLQIIHCTAPIEVIQERLIKRTGDIADATVDLLSSQLQQTEPFTDQEKPYVQTWDTTQPPHVIGNR	not soluble
MGSDKIHHHHHHMTFDEYEVAINSEFTLQGTLTKPKAGGKYAAVIIIAGSGEIDRDGTILPLKLESNIYKDLAHVMAKLGVVTLRFDKRGVGKSDGEFLKTGMWDLVNDIESTITYLKEQPFVDPENIILAGHSEGCMLATVVNARTPVNGLILLTGAAESLEEATKRQREIAYKELKEQKGIKGKLMRLLDVEKRGEKQMEKIKEKMMNTEKDTIKVGFKPMNAKWFREHFQHDIYKDLQQVTCPVLAIAGDKDFQANPEKAKRIGDYVQGDSEVHVIKDMDHSLKSFEGDFKALEFKKNYEEGAGKPLHPMLEEIIMNWISTNFILHKIPVSTLSEYEGDGKESNCL	not soluble
MGSDKIHHHHHHMTFLFFQPSSNIIKPYALMDLDDTLFQTQRKIDAWELPTTEPENLVCATVNKQGEPLSFMSQRQAAFFNWLLASTELIAVTARDRLEIKRVKLLFNSWQVLTHGAVILTSDGEPLSTWQQHMYNALIPLQDKINQLTEWVNSYSKESDRTHNDLKLTPHTDTFIDSELTIYLAIKHTQKDHQALAELATQLPTLIPDFDAHFYVHVNANNLAILPHAVHKRHAVQFLLEQHLDHQRPSFGFGDSLADLPFLQLLDWYGMPNHGQLHTQQ	not soluble
MGSDKIHHHHHHMTGRRCERTTSPGTGGRLRAEPADFQVQEVPAYLPGGSGEYLYLHVEKTRHTTAHVVRELCAQLGVRDRDVGVAGLKDRHAVTTQWLSLPAKVEPRMGDFSLPGVRILETSRHTNKLGMGHLHGNRFVVRVRGAAGMAEQAGETLATLAQGGVPNYFGPQRFGLGGLNAEEGLRVLRGESELRDPRVRRFLTSSVQSAIFNALVSLRLEREVFDRLLTGDMAKKHDTGGVFLVEDAGAETPRAQRGEVSATGTLFGRKVKPLTADAGALEAEALALFGLSPQVFASRKGDRRLIRVFPAEAEVRPEDDGYVLAFTLPKGSFATSVLREVMKTEVDAPGAGPDTTDEGEAGDGE	not soluble
MGSDKIHHHHHHMTGSNKVIISCAVTGSIHTPTMTPYLPITSTEIANAATGAIDAGAAIVHLHARHPDDGRPDQTVGAFRPFIEHIKAHTDGIINLTTGGAPTMSVEERLQPALHLKPEIASLNMGSMNFGLFPMLNRYKEFKHEWERHYLEGTRDLVFRNTFKDIEYVLSSCTGNDTRFEFECYDTAHLYNLAHFLDRKLVTPPLFVQTVFGILGGIGSHADDVAHMKRTADRLFGSNYVWSVLGAGRAQMPVASIAAAQGGNVRVGIEDSIWNGPGQLAKANSDQVRRVRQILEGMGLAIATPDEARTLLHLKGRNNVAF	not soluble
MGSDKIHHHHHHMTGTTENDNTGEDEKPKDEECAAIEHKDKFNPTAYLNSFYKTASEDTAMQIVLFFLPGILYRLPQKVRSVLDLGAGPTVYLPISLRDRAENIYTSDYAPANRDTLINWIEDKSDFDWDNVCSWIANIEASMETGKQMQNKTRKLMRAVLDVNVHESPVVQSIVWKENEQVQVPDKFQVVSTVFCLEYSCETLEAYFRAVRSACSLIDEGGILIQGGVLDATTYNFGGKTFRCHRLKQAHIIESLKANGMATTAEQGYKFITHDDIFLLVSKKL	not soluble
MGSDKIHHHHHHMTHDLLDLLRQWHQSPDEAWVLAVLTQVQGSSYRKPGAMMLFHPMGKSYGMLSGGCLEADLRRHAQQVIQSQCVAQVEYDASDESDSSYQLGCGGIVNIMLVTVTKANDYLGFNPLLAALARGDSVEYELSLPANASPCQQASAKLSIVPLSDNLTQAQLKGAHKAVTAYKHEVLTMRLAPPIALGIFGAGLDAQPVAAMAQQLGWQVSVFDERSAYGRLYDFPSVKVVKGPFDAIEPAILKRLDAAIVMSHNLNLDAKALSLLASLSQPHSHNNLAYLALLGPPQRRDRVLRIAGLELADIKCFFSAPAGLALGGELPSSVALSIVSQCHGVLHGSAIIALDEVMGCP	not soluble
MGSDKIHHHHHHMTHFGVDLWDRFTTRIGEARETLRAAGAPTGLLDQAEGARYLSRIVRLGLEMYLEGGDPDFPSFVLPSHATAKLGGDNPDNLYLSATILGDRSYRLTGNIGSVHYLSIGSKANRYAIDGTMASTGELQKEAFRADANGDFTVIASVKRPEGDVAWLPLAPDSNILQVRQTFLNRARETPARFAIERISEGLAHPAPTDPLAIERRMMAAADFVVNATRMFASWTAMFMPYPNEMRDWGQDMFHKAGGDPAIFYVHGYWKLAPGERLLIETDVPECEHWNIQVDNWWMESMDYRYLPACINAGNAEREADGSVRIVLAADDPGERNWLTTHGHSEGHLLLRWVRAASHPIPKLTLLRD	not soluble
MGSDKIHHHHHHMTHQAATVHALNPATPEGLEVRLARTRAEVAAAQRIRYRVFYEEMGAKPTVAMQTLEQDFDDYDKHCDHLVVLADGDVVGTYRLIRRSAAQAVGRFYTAGEFDISPFLAVEGEILELGRSCVDARWRHRGTLQALWQGLAGYMVENDIRLLFGCGSLPGTDPEILAPQLAYLRDNHMAPPALRGRALDSAEKVDFAGIDVAWDARRVLASLPPLLKGYLRLGGVIGDGAVIDRPFNTTDVLVVVNAADIAGRYVKRFSA	not soluble
MGSDKIHHHHHHMTIRINADFSQRIVVQPGDYHWVESPMPGVQRMMLDRVGGETARATSIVRYEPFSEFSPHIHSGGEEFFVLEGVFSDEHQCYGKGSYVRNPIGSSHTPKIGKEGATIFVKLQQFDEKDTEQKVIDTQTQPWFQGLVGGLKVMPLHEFESEHVALVKWAPNTQFTAHQHWGGEEIFVLEGTFHDEHGRYPKGSWLRSPHLSRHSPFTKEEGALIYVKTGHL	not soluble
MGSDKIHHHHHHMTITESRNAAVAEIEEVIGDWAEALRRKDAARVLAHGTEDCLVFSLAPPLKASDADAGGLEQWFSTWKGPLGFTLEELDVSVSGDVAFATALTHLSGEKHDGQKAALWYRLTLGLTRTDRGWKIAHQHESVPFYMDGSFKAAIDLDPRSEVDWQAPSRPPMPGVIAYLNVEDADAAAAFYVRAFGAKEEDRKHAQDGKRLIHCHLTINGGALMLNDPFPEFGHPWKPPEGFVLHLVVDDADFWWNRAVEAGAEVTMPLEIAFWGDHYGQLRDPFGVTWGIVAPVKEGG	not soluble
